{"source": "IntAct's records for PubMed 32296183", "key": {"zn639_human ZNF639": {"target": "zn639_human ZNF639 (UniProt Q9UID6)", "sequence (Q9UID6 whole entry)": "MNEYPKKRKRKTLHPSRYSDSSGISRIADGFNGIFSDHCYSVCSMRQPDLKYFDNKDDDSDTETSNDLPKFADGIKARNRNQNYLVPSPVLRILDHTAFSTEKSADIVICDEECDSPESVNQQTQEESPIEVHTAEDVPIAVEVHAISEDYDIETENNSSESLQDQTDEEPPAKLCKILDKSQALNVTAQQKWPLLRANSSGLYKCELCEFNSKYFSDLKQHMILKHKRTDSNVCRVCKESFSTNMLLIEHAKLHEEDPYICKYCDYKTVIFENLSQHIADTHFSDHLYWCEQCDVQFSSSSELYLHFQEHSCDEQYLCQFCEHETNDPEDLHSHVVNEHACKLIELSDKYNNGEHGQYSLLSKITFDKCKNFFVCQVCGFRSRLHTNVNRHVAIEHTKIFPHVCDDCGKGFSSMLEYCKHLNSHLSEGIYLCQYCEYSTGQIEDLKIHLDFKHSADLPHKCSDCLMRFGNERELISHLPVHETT"}, "sng3_human SYNGR3": {"target": "sng3_human SYNGR3 (UniProt O43761)"}, "trbp2_human TARBP2": {"target": "trbp2_human TARBP2 (UniProt Q15633)", "sequence (Q15633 whole entry)": "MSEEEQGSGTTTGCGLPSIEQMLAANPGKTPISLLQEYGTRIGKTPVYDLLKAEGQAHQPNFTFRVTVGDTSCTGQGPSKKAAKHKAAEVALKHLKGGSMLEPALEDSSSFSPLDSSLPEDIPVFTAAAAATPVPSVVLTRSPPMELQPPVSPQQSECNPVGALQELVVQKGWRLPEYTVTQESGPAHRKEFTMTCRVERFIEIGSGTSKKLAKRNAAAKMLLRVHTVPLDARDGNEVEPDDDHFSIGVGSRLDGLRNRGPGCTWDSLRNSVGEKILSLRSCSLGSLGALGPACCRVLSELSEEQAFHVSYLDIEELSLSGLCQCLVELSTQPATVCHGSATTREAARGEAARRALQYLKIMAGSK"}, "CCDC43": {"target": "CCDC43 (UniProt Q86WV7)"}, "sp4_human SP4": {"target": "sp4_human SP4 (UniProt Q02446)"}, "tnip1_human TNIP1": {"target": "tnip1_human TNIP1 (UniProt Q15025)"}, "fads6_human FADS6": {"target": "fads6_human FADS6 (UniProt Q8N9I5)", "sequence (Q8N9I5 whole entry)": "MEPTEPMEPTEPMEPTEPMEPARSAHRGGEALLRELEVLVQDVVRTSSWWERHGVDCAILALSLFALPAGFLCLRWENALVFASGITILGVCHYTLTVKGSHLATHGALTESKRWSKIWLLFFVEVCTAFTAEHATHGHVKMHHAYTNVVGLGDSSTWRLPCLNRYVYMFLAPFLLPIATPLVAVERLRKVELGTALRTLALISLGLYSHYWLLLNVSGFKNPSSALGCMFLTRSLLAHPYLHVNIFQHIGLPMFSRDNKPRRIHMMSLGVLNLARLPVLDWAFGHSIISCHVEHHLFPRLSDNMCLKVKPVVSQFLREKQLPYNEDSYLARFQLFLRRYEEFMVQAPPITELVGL"}, "klh12_human KLHL12": {"target": "klh12_human KLHL12 (UniProt Q53G59)"}, "msd4_human MSANTD4": {"target": "msd4_human MSANTD4 (UniProt Q8NCY6)"}, "zbt14_human ZBTB14": {"target": "zbt14_human ZBTB14 (UniProt O43829)", "sequence (O43829 whole entry)": "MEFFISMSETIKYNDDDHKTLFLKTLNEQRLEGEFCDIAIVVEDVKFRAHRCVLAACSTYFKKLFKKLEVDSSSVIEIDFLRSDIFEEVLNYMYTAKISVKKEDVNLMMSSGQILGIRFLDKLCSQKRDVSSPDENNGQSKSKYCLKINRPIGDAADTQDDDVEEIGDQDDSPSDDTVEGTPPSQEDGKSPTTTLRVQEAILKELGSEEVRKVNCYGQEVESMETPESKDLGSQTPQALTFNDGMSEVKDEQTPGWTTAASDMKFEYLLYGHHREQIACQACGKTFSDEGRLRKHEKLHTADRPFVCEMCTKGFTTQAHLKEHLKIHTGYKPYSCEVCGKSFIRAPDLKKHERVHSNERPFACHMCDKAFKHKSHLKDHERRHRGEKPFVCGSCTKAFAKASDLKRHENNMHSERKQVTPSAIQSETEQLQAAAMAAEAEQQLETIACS"}, "cntrb_human CNTROB": {"target": "cntrb_human CNTROB (UniProt Q8N137)"}, "coha1_human COL17A1": {"target": "coha1_human COL17A1 (UniProt Q9UMD9)", "sequence (Q9UMD9 whole entry)": "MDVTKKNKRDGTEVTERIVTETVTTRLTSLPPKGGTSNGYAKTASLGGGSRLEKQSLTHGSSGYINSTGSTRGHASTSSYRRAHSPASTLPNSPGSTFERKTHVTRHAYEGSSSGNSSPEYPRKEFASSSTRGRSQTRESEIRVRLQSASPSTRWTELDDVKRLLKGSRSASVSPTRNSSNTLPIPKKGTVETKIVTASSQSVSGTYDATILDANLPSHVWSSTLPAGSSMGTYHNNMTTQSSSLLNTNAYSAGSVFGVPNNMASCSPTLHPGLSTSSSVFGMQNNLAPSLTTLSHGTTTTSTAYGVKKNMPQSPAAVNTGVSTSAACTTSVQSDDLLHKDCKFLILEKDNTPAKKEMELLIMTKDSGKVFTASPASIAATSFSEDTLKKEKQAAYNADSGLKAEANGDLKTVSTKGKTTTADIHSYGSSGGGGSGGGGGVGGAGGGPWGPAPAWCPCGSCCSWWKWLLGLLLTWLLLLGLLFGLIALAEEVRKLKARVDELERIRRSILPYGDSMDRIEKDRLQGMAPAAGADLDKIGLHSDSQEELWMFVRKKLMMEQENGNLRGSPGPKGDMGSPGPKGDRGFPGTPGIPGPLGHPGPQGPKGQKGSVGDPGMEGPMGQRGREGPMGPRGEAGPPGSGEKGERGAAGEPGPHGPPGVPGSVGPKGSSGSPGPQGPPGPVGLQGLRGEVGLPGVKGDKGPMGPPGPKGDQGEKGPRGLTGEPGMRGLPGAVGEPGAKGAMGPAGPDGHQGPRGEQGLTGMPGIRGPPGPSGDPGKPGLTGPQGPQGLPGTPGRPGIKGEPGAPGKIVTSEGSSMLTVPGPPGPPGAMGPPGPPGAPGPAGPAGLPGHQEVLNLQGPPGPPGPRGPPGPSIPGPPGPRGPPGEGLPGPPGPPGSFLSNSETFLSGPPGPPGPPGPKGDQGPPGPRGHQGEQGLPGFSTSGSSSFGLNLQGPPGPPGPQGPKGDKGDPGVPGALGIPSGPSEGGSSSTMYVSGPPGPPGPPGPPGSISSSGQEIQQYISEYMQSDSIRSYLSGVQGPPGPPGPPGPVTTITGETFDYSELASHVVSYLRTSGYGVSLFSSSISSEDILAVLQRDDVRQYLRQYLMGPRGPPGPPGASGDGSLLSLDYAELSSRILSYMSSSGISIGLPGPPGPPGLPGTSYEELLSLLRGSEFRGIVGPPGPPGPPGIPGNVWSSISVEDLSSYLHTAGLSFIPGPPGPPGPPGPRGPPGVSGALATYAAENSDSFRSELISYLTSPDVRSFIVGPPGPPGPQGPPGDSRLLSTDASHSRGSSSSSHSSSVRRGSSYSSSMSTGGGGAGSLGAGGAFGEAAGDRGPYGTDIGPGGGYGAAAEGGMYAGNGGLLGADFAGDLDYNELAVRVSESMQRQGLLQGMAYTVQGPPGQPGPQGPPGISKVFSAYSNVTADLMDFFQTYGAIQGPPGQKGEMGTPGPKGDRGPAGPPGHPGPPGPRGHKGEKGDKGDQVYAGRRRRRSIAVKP"}, "tbcd1_human TBC1D1": {"target": "tbcd1_human TBC1D1 (UniProt Q86TI0)"}, "flowr_human CACFD1": {"target": "flowr_human CACFD1 (UniProt Q9UGQ2)", "sequence (Q9UGQ2 whole entry)": "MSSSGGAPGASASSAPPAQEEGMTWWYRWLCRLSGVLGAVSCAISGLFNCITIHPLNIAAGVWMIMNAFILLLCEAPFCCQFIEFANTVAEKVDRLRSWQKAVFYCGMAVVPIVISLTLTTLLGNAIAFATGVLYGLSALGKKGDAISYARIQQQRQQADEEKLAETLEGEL"}, "thap1_human THAP1": {"target": "thap1_human THAP1 (UniProt Q9NVV9)", "sequence (Q9NVV9 whole entry)": "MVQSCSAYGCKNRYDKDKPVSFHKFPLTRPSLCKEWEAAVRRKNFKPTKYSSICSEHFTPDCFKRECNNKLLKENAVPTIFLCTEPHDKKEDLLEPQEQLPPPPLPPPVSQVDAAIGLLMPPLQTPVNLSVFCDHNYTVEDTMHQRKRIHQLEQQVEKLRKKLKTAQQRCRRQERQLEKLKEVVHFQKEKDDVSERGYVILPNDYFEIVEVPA"}, "sft2a_human SFT2D1": {"target": "sft2a_human SFT2D1 (UniProt Q8WV19)"}, "crcm_human MCC": {"target": "crcm_human MCC (UniProt P23508)"}, "xrcc4_human XRCC4": {"target": "xrcc4_human XRCC4 (UniProt Q13426)"}, "pnma5_human PNMA5": {"target": "pnma5_human PNMA5 (UniProt Q96PV4)", "sequence (Q96PV4 whole entry)": "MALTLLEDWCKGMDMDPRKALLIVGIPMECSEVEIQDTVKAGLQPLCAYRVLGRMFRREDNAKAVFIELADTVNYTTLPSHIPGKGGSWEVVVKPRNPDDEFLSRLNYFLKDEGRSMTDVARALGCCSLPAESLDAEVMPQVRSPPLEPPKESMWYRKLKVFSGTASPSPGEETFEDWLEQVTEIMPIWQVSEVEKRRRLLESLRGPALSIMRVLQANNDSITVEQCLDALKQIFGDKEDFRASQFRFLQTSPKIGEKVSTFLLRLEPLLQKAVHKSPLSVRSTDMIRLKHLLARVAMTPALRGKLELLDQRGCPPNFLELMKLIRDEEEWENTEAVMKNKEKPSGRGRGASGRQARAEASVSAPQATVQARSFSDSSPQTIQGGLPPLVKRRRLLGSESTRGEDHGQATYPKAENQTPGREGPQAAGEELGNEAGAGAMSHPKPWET"}, "car10_human CARD10": {"target": "car10_human CARD10 (UniProt Q9BWT7)"}, "kank2_human KANK2": {"target": "kank2_human KANK2 (UniProt Q63ZY3)"}, "ppip1_human PSTPIP1": {"target": "ppip1_human PSTPIP1 (UniProt O43586)"}, "syph_human SYP": {"target": "syph_human SYP (UniProt P08247)"}, "pick1_human PICK1": {"target": "pick1_human PICK1 (UniProt Q9NRD5)"}, "tri37_human TRIM37": {"target": "tri37_human TRIM37 (UniProt O94972)", "sequence (O94972 whole entry)": "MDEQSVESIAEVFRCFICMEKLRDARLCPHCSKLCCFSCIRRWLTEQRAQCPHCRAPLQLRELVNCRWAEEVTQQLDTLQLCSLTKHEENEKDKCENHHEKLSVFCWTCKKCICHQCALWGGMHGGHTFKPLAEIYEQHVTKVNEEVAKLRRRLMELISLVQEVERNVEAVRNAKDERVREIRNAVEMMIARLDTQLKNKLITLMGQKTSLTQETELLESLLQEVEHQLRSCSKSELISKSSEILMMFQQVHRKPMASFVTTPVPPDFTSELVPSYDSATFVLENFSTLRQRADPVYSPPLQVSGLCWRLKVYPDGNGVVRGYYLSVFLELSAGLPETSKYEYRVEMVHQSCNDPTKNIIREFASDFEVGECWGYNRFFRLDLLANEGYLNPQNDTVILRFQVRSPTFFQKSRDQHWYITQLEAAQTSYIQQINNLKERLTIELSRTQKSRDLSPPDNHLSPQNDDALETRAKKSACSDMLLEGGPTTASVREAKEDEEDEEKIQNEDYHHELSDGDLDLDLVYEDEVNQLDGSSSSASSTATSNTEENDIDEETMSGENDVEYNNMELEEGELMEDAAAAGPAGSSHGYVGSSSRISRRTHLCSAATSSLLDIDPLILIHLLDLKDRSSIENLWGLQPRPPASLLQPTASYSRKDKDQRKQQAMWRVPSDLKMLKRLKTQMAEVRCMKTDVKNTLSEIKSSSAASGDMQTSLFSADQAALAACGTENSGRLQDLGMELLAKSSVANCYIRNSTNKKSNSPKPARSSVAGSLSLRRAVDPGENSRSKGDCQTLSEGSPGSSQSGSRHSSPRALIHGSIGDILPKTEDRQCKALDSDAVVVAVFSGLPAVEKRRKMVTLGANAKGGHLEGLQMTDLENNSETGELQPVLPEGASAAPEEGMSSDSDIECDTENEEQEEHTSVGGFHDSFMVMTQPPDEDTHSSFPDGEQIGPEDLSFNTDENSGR"}, "snx2_human SNX2": {"target": "snx2_human SNX2 (UniProt O60749)"}, "rprm_human RPRM": {"target": "rprm_human RPRM (UniProt Q9NS64)"}, "mgst2_human MGST2": {"target": "mgst2_human MGST2 (UniProt Q99735)"}}, "data": [{"substance": "Bifunctional polynucleotide phosphatase/kinase (Homo sapiens), Q96T60 E326K", "values": [{"measurement": "effect of a mutation on the interaction", "setting": "zn639_human ZNF639", "value": "with no effect"}, {"measurement": "effect of a mutation on the interaction", "setting": "sng3_human SYNGR3", "value": "with no effect"}, {"measurement": "effect of a mutation on the interaction", "setting": "trbp2_human TARBP2", "value": "disrupting interaction strength"}, {"measurement": "effect of a mutation on the interaction", "setting": "CCDC43", "value": "disrupting interaction strength"}, {"measurement": "effect of a mutation on the interaction", "setting": "sp4_human SP4", "value": "with no effect"}, {"measurement": "effect of a mutation on the interaction", "setting": "tnip1_human TNIP1", "value": "with no effect"}, {"measurement": "effect of a mutation on the interaction", "setting": "fads6_human FADS6", "value": "with no effect"}, {"measurement": "effect of a mutation on the interaction", "setting": "klh12_human KLHL12", "value": "disrupting interaction strength"}, {"measurement": "effect of a mutation on the interaction", "setting": "msd4_human MSANTD4", "value": "disrupting interaction strength"}, {"measurement": "effect of a mutation on the interaction", "setting": "zbt14_human ZBTB14", "value": "with no effect"}, {"measurement": "effect of a mutation on the interaction", "setting": "cntrb_human CNTROB", "value": "with no effect"}, {"measurement": "effect of a mutation on the interaction", "setting": "coha1_human COL17A1", "value": "disrupting interaction strength"}, {"measurement": "effect of a mutation on the interaction", "setting": "tbcd1_human TBC1D1", "value": "with no effect"}, {"measurement": "effect of a mutation on the interaction", "setting": "flowr_human CACFD1", "value": "disrupting interaction strength"}, {"measurement": "effect of a mutation on the interaction", "setting": "IKZF1, Q13422-7", "value": "with no effect"}, {"measurement": "effect of a mutation on the interaction", "setting": "thap1_human THAP1", "value": "disrupting interaction strength"}, {"measurement": "effect of a mutation on the interaction", "setting": "sft2a_human SFT2D1", "value": "disrupting interaction strength"}, {"measurement": "effect of a mutation on the interaction", "setting": "crcm_human MCC", "value": "disrupting interaction strength"}, {"measurement": "effect of a mutation on the interaction", "setting": "xrcc4_human XRCC4", "value": "with no effect"}, {"measurement": "effect of a mutation on the interaction", "setting": "SYNGR1, O43759-2", "value": "disrupting interaction strength"}, {"measurement": "effect of a mutation on the interaction", "setting": "pnma5_human PNMA5", "value": "disrupting interaction strength"}, {"measurement": "effect of a mutation on the interaction", "setting": "car10_human CARD10", "value": "disrupting interaction strength"}, {"measurement": "effect of a mutation on the interaction", "setting": "kank2_human KANK2", "value": "disrupting interaction strength"}, {"measurement": "effect of a mutation on the interaction", "setting": "ppip1_human PSTPIP1", "value": "with no effect"}, {"measurement": "effect of a mutation on the interaction", "setting": "syph_human SYP", "value": "with no effect"}, {"measurement": "effect of a mutation on the interaction", "setting": "CAMK2B, Q13554-3", "value": "disrupting interaction strength"}, {"measurement": "effect of a mutation on the interaction", "setting": "pick1_human PICK1", "value": "disrupting interaction strength"}, {"measurement": "effect of a mutation on the interaction", "setting": "tri37_human TRIM37", "value": "with no effect"}, {"measurement": "effect of a mutation on the interaction", "setting": "CCDC14, Q49A88-3", "value": "disrupting interaction strength"}, {"measurement": "effect of a mutation on the interaction", "setting": "snx2_human SNX2", "value": "with no effect"}, {"measurement": "effect of a mutation on the interaction", "setting": "rprm_human RPRM", "value": "disrupting interaction strength"}, {"measurement": "effect of a mutation on the interaction", "setting": "TMEM239, Q8WW34-2", "value": "disrupting interaction strength"}, {"measurement": "effect of a mutation on the interaction", "setting": "mgst2_human MGST2", "value": "with no effect"}]}]}
